Source: patent US20210221914A1

How the values were obtained:
[1] = target: CD64 (FcgammaRI) (UniProt P12314); assay: SPR, single-cycle kinetics, bivalent analyte model
[2] = target: CD32a167H (UniProt P12318); assay: SPR, BIAcore 8K, antibody captured on anti-Fab chip, steady state affinity fit
[3] = target: CD32a167R (UniProt P12318); assay: as above
[4] = target: CD32b (FcgammaRIIb) (UniProt P31994); assay: as above
[5] = target: CD16a176F (UniProt P08637); assay: SPR, BIAcore 8K, antibody captured on anti-Fab chip, single-cycle kinetics, bivalent analyte model
[6] = target: CD16a176V (UniProt P08637); assay: as above
[7] = target: CD16b (FcgammaRIIIb) (UniProt O75015); assay: as above

Chain of CD16a176V (P08637 17-208 F176V limits assumed): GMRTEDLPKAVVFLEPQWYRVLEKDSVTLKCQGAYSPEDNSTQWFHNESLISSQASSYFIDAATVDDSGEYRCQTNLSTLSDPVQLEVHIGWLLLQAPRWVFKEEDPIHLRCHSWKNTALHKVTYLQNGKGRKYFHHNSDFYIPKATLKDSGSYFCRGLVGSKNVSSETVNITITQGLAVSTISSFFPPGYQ
Chain of CD16a176F (P08637 17-208 limits assumed): as the sequence (P08637 17-208 F176V limits assumed) above, with V160F counted along it
Chain of CD32a167R (P12318 36-218 H167R limits assumed): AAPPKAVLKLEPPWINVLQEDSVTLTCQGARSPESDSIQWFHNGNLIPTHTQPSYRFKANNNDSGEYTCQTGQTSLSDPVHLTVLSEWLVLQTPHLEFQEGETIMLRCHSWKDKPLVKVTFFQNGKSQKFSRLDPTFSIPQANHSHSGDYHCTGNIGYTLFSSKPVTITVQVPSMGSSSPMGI
Chain of CD32a167H (P12318 36-218 limits assumed): as the sequence (P12318 36-218 H167R limits assumed) above, with R132H counted along it
Chain of CD32b (FcgammaRIIb) (P31994 46-217 limits assumed): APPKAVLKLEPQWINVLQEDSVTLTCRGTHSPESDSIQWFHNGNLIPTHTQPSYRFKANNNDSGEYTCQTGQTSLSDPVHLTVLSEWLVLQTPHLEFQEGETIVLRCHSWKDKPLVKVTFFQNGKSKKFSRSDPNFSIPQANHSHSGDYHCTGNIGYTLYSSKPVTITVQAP
Chain of CD64 (FcgammaRI) (P12314 16-288 limits assumed): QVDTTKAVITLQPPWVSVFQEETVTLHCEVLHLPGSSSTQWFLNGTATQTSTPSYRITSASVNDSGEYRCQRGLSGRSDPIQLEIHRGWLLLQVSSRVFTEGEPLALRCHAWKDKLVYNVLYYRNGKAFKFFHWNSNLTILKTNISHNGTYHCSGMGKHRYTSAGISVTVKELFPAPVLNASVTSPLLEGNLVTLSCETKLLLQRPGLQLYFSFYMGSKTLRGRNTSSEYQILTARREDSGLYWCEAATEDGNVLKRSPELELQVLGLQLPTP

Row | Substance | fold increase in off-rate relative to CD-WT [1] [fold] | Kd [2] [nM] | Kd [3] [nM] | Kd [4] [nM] | Kd [5] [nM] | koff [5] [s⁻¹] | kon [5] [M⁻¹ s⁻¹] | Kd [6] [nM] | koff [6] [s⁻¹] | kon [6] [M⁻¹ s⁻¹] | Kd [7] [nM] | koff [7] [s⁻¹] | kon [7] [M⁻¹ s⁻¹]
1 | CD-GLU antibody (human IgG1, m1,17 allotype, CD loop replaced by the Glu epitope YMPMENNY) | 1.2 | 505 | 488 | 1610 | 1050 | 0.189 | 181000 | 334 | 0.146 | 438000 | 556 | 0.168 | 302000
2 | CD-WT antibody (human IgG1, m1,17 allotype, wild-type CD loop) | – | 450 | 439 | 1530 | 869 | 0.185 | 213000 | 241 | 0.181 | 751000 | 426 | 0.166 | 389000
